Assay results taken from patent publication US20250230242A1, “PHARMACEUTICAL COMPOSITION OF ANTI-TIM-3 ANTIBODY AND HYPOMETHYLATING AGENT” (NANJING SHUNXIN PHARMACEUTICALS CO., LTD. OF CHIATAI …, priority 2022, published 2025).

What was measured:
Daudi cells [1] = assay: ADCC against Daudi cells; type: cell-based; settings: 1 or 10 μg/mL, effector cells PBMC, FIG. 3
Experimental: (§1) After the reaction was completed, the mixture was centrifuged, and the supernatant was collected and measured for fluorescence values at 490 nm as excitation wavelength and 515 nm as emission wavelength. The cells were lysed directly with 0.1% Triton X-100 and centrifuged, and then the supernatant was collected to determine the total fluorescence value. The lysis rate (%) was calculated based on the fluorescence value.

Daudi cells [2] = assay: CDC against Daudi cells; type: cell-based; settings: 10 or 100 μg/mL, 10% human serum, FIG. 4
Experimental: (§2) CHO-S-HuTIM-3 cells and Daudi cells (Shanghai Cell Bank of Chinese Academy of Sciences) were inoculated into a 96-well plate. […] Finally, CCK-8 reagent (Dojindo Laboratories) was added and reacted for 4 h. The OD value was measured at a wavelength of 450 nm using a microplate reader, and the lysis rate (%) was calculated.

[3] = target: T1, CHO-S-HuTIM-3 cells highly expressing human TIM-3 (Homo sapiens, UniProt Q8TDQ0); assay: Binding to cells highly expressing human TIM-3 (cell ELISA)
T1 construct: expressed in transfected cells; host or cells: CHO-S
Experimental: The human TIM-3 gene was transfected into CHO-S cells, and the cells were incubated in an incubator at 37° C. with 5% CO2 using a Dynamis AGT medium (containing 4 mM glutamic acid and 3 μg/mL Puromycin) to give CHO-S-HuTIM-3 cells. […] After the reaction was stopped with H2SO4, the OD value was measured at a wavelength of 450 nm using a full-function microplate reader Synergy H4. The binding EC50 was calculated based on the OD value.

CHO-S-HuTIM-3 cells [4] = assay: ADCC against CHO-S-HuTIM-3 cells; type: cell-based; settings: 10 or 100 μg/mL, effector cells PBMC, FIG. 3
Experimental: as §1

CHO-S-HuTIM-3 cells [5] = assay: CDC against CHO-S-HuTIM-3 cells; type: cell-based; settings: 10 or 100 μg/mL, 10% human serum, FIG. 4
Experimental: as §2

[6] = target: T2, human TIM-3 on CHO-S-HuTIM-3 cells (human, UniProt Q8TDQ0 22-301); assay: cell ELISA on CHO-S-HuTIM-3 cells, anti-human kappa-HRP
T2 construct: whole, on cells; Human TIM-3 gene transfected into CHO-S cells; also called CHO-S-HuTIM-3 cells highly expressing human TIM-3

[7] = target: T3, human TIM-3 recombinant protein (R&D) (human, UniProt Q8TDQ0 22-200); assay: ELISA, human TIM-3 coated, h50B5 titrated, anti-human kappa-HRP
T3 construct: Bought recombinant protein; also called human TIM-3 protein

[8] = target: T4, cynomolgus monkey TIM-3 recombinant protein (Acro) (cynomolgus monkey, UniProt A0A2K5U3G7 22-193); assay: ELISA, h50B5 coated at 2 µg/mL, cynomolgus TIM-3 titrated, Anti-His HRP
T4 construct: Bought recombinant protein; His tag implied only by the Anti-His HRP detection; also called cynomolgus monkey TIM-3 protein
T4 sequence: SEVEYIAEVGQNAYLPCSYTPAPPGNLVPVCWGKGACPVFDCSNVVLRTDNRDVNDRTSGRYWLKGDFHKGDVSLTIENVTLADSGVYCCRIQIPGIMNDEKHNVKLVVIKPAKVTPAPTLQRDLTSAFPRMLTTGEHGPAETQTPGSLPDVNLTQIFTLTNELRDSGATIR

Molecule: Rituxan®: positive control for ADCC and CDC with Daudi cells as target cells
- ADCC against Daudi cells (Daudi cells [1]): exhibited significant ADCC
- CDC against Daudi cells (Daudi cells [2]): exhibited significant CDC

Molecule: TSR022: anti-TIM-3 antibody used as benchmark, heavy chain SEQ ID NO: 22, light chain SEQ ID NO: 23 [reference compound]
- EC50 of binding to CHO-S-HuTIM-3 cells ([3]; FIG. 1): 6.8155 ± 0.1662 µg/mL
- maximum binding Emax (OD450), CHO-S-HuTIM-3 cells ([3]; FIG. 1, OD450): 0.26±0.05
- ADCC against CHO-S-HuTIM-3 cells (CHO-S-HuTIM-3 cells [4]): did not show significant ADCC
- CDC against CHO-S-HuTIM-3 cells (CHO-S-HuTIM-3 cells [5]): did not show significant CDC

B1: anti-TIM-3 antibody TSR022 (antibody, human IgG4 S228P, kappa, V domains shown)
VH: EVQLLESGGGLVQPGGSLRLSCAAASGFTFSSYDMSWVRQAPGKGLDWVSTISGGGTYTYYQDSVKGRFTISRDNSKNTLYLQMNSLRAEDTAVYYCASMDYWGQGTTVTVSS
VL: DIQMTQSPSSLSASVGDRVTITCRASQSIRRYLNWYHQKPGKAPKLLIYGASTLQSGVPSRFSGSGSGTDFTLTISSLQPEDFAVYYCQQSHSAPLTFGGGTKVEIKR
notes: Benchmark antibody, prepared in the same way as h50B5
- EC50 [6]: 6.82 µg/mL

B2: humanized anti-TIM-3 antibody h50B5 (antibody, human IgG4 S228P, kappa, V domains shown)
VH: QVQLVQSGAEVKKPGASVKVSCKASGYSFTGYTINWVRQAPGQGLEWMGLFNPYNGGTTYAQKFQGRVTMTVDKSTSTVYMELSSLRSEDTAVYYCARRYYGYDAMDYWGQGTLVTVSS
VL: DIQMTQSPSSLSASVGDRVTITCKSSQSVLYSSNQKNHLAWYQQKPGKAPKLLIYWASTRESGVPSRFSGSGSGTDFTLTISSLQPEDFATYYCHQYLSSYTFGQGTKLEIKR
notes: Humanized from mouse mAb 50B5 by CDR grafting; human IgG4 heavy chain constant region and human light chain constant region
- EC50 [6]: 1.46 µg/mL
- EC50 [7]: 0.291 µg/mL
- EC50 [8]: 1.64 µg/mL
